We go through six molecules from US20190343964A1 (SHIZUOKA PERFECTURE, published 2019).

To fix the notation:
T1: soluble human B7-H4 recombinant protein (human, UniProt Q7Z7D3 25-259)
T1 construct: also called a free form of B7-H4
T1 sequence: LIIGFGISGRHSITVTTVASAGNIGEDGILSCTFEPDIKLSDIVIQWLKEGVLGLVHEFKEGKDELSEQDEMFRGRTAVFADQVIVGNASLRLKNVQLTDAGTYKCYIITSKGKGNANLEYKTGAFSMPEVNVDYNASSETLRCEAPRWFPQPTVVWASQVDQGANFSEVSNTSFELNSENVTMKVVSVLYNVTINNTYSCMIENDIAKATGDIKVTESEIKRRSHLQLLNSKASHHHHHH

T2: B7-H4 expressed on the membrane surface of cancer cells (human, UniProt Q7Z7D3 25-282)
T2 sequence (looked up): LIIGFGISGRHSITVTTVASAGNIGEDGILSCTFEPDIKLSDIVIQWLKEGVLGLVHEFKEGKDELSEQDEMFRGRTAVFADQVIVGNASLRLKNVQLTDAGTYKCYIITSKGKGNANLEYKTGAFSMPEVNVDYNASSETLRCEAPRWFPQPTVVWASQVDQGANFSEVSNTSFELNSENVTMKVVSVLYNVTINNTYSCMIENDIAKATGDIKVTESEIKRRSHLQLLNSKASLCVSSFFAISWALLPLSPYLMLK

B1: H4.140 (antibody, V domains shown)
VH: EVQLVESGGDLVKPGGSLKLSCAASGFTFSTYGMSWVRQTPDKRLEWVATISSGGNYTYYPDSVKGRFTISRDNAKNTLYLQMSSLKSEDTAMYYCARPYGNHFDYWG
VL: DIQMTQSPASLAASVGETVTITCRASENIYYSLAWYQQKQGKSPQLLIYNANSLEDGVPSRFSGSGSGTQYSMKINSMQPEDTATYFCKQAYDVPYTFG
notes: Mouse hybridoma monoclonal antibody; also called anti-B7-H4 monoclonal antibody produced from hybridoma clone #140
B2: H4.121 (antibody, V domains shown)
VH: QVQLQQSGAELMKPGASVKISCKATGYTFSSYWIEWVKQRPGHGLEWIGEILHGSDSTNYNENFKGKATFTADTSSNTAYMRLSSLTSEDSAVYYCASHYYGSSPFAYWG
VL: not shown
notes: Mouse hybridoma monoclonal antibody; also called anti-B7-H4 monoclonal antibody produced from hybridoma clone #121
B3: H4.018 (antibody)
chain 1: EVKLVESGGGLVKPGGSLKLSCAASGFTFSSYAMSWVRQTPEKRLEWVATISSGGNYTYYPDSVKGRFTISRDNAKNTLYLQMSSLRSEDTAMYYCARHRYDNNYDYYAMD
chain 2: NIQMTQSPSSLAVSAGEKVTMSCKSSHAVLYSSNQKNYLAWYQQKPGQSPKLLIYWASTRDSGVPDRFTGGGSGTDFTLTITNIQPEDLAVYYCHQYLSSWTFGGGTKVEIK
B4: H4.209 (antibody, V domains shown)
VH: EVKLVESGGGLVKPGGSLKLSCAASGFTFSNYALSWVRQTPEKRLEWVASISGGGSTYYPDSVKGRFIISRDNARNILYLQMSSLRSEDTAMYYCARGPSYDDYYFDVWG
VL: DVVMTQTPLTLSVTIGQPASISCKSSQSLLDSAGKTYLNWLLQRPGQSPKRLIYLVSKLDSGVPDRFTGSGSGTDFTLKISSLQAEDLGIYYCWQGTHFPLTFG
notes: Mouse hybridoma monoclonal antibody; also called anti-B7-H4 monoclonal antibody produced from hybridoma clone #209
B5: H4.051 (antibody, V domains shown)
VH: EVQLQQSGAELVRSGASVKLSCTASGFNIKDFYVHWVKQRPEQGLEWIGWIDPAHVDTEYAPKFQGKTTMTADTSSNTAYLQLSSLTSEDSAVYYCNALLPRTMDYWG
VL: DVVLTQTPLSLPVNVGDQASISCKSTKSLLNSDGFTYLDWYLQKPGQSPQLLIYLVSNRFSGVPDRFSGSGSGTDFTLKISRVEAEDLGVYYCFQSNYLPYTFG
notes: Mouse hybridoma monoclonal antibody; also called anti-B7-H4 monoclonal antibody produced from hybridoma clone #51
B6: Fab-scFv according to the present invention (bispecific antibody)
heavy: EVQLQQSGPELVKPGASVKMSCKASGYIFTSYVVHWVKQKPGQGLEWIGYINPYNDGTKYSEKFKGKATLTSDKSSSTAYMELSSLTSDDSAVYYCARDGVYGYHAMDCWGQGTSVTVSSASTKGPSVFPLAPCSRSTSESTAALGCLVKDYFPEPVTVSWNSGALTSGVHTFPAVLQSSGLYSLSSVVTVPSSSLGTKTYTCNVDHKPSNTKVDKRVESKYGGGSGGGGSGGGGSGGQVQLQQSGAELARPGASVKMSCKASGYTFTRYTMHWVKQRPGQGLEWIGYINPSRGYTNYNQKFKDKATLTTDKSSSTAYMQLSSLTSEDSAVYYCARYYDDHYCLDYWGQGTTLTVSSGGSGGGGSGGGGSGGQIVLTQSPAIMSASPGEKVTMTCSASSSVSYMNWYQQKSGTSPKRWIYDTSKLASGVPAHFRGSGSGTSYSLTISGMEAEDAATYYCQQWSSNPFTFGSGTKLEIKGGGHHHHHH
light: NIQMTQSPSSLAVSAGEKVTMSCKSSHAVLYSSNQKNYLAWYQQKPGQSPKLLIYWASTRDSGVPDRFTGGGSGTDFTLTITNIQPEDLAVYYCHQYLSSWTFGGGTKVEIKRTVAAPSVFIFPPSDEQLKSGTASVVCLLNNFYPREAKVQWKVDNALQSGNSQESVTGQDSKDSTYSLSSTLALSKADYEKHKVYACEVTHQGLSSPVTKSFNRGEC

One test addresses T1, soluble human B7-H4 recombinant protein. The test can be described thus: ELISA, hybridoma culture supernatant diluted 2 times on immobilized free form of B7-H4. The procedure: Specifically, the free form of B7-H4 was added to a 96 well Immobilizer Amino Plate (Thermo Fisher Scientific) and incubated at room temperature for 2 hours to immobilize the free form of B7-H4 on the plate surface. Simultaneously, wells with no immobilization of the free form of B7-H4 were prepared as negative control. After incubation, the antigen that was not immobilized was removed and the wells were filled with PBS containing 3% BSA and incubated at 4° C. overnight. In this step, nonspecific binding capacity to the plate surface was blocked to produce a plate for ELISA.
The culture supernatant of each of the plurality of hybridoma lines obtained in Example 2 was 2-times diluted with PBS containing 0.05% Tween20 to prepare a supernatant sample. The buffer was removed from the wells of the aforementioned plate for ELISA and then the supernatant sample was added and incubated at room temperature for 2 hours. The plate was washed to remove the unbound antibody and then a horseradish peroxidase (HRP) labeled anti-mouse immunoglobulin antibody (GE Healthcare) was added and incubated for 1 hour. The wells were washed, then a peroxidase substrate (BD Biosciences) was added and incubated for 30 minutes, and a sulfuric acid solution at a concentration of 0.1 M or higher was added to stop the color development. Whether an antibody that recognizes B7-H4 in a supernatant sample was contained was examined by measuring the absorption of the solution in each well at a wavelength of 450 nm.
For orientation: ELISA stands for enzyme-linked immunosorbent assay.
As for B1, the “OD 450 nm” value turned out to be 1.06 OD 450 nm. As to B2, the “OD 450 nm” value amounted to 2.02 OD 450 nm. On the same count and under the same terms, in the case of B3 it was 1.96 OD 450 nm; in that of B4, 1.93 OD 450 nm; in that of B5, 1.96 OD 450 nm.

Another test addresses T2, B7-H4 expressed on the membrane surface …. The test can be described thus: cell-based or functional assay.
Take B6: the “50% maximum effective concentration (EC50) of cytotoxicity (% Lysis) to MDA-MB-468 cells, LDH release, with human peripheral blood mononuclear cells, 16 hours” value stood at 0.013 µg/mL.
